What was measured:
[1] = target: T1, rabbit serum albumin, P49065
T1 chain: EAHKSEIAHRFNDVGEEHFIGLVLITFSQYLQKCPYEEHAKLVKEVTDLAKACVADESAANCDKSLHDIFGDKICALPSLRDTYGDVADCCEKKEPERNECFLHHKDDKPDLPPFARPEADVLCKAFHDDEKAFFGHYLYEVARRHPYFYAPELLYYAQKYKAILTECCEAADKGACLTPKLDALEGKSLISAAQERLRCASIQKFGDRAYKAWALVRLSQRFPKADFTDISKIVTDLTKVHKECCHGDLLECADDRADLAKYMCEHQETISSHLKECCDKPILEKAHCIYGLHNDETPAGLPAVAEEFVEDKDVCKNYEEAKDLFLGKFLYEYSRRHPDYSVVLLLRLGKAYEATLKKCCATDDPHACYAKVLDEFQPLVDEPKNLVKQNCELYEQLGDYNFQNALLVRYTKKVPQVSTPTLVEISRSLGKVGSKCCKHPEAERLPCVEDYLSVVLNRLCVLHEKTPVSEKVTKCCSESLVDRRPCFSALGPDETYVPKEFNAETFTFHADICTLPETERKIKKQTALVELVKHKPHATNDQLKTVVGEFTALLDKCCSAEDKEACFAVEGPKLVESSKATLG

B1: PlySs2 (CF-301) lysin (protein)
chain: MTTVNEALNNVRAQVGSGVSVGNGECYALASWYERMISPDATVGLGAGVGWVSGAIGDTISAKNIGSSYNWQANGWTVSTSGPFKAGQIVTLGATPGNPYGHVVIVEAVDGDRLTILEQNYGGKRYPVRNYYSAASYRQQVVHYITPPGTVAQSAPNLAGSRSYRETGTMTVTVDALNVRRAPNTSGEIVAVYKRGESFDYDTVIIDVNGYVWVSYIGGSGKRNYVATGATKDGKRFGNAWGTFK
Fold decrease in CF-301 MIC compared to media alone (delipidated human serum + Oleate 0.625 mg/mL) (human serum albumin): 8 fold | Fold decrease in CF-301 MIC compared to media alone (delipidated human serum + Palmitate 0.625 mg/mL) (human serum albumin): 16 fold | Fold decrease in CF-301 MIC compared to media alone (delipidated human serum + Palmitate + Oleate) (human serum albumin): 16 fold | Fold decrease in MIC (50% MHB/50% heat-inactivated human serum supplemented with HSA, 40 mg/mL) (human serum albumin): 4 fold | Fold decrease in MIC (MHB supplemented with HSA, 40 mg/mL) (human serum albumin): 8 fold | Fold increase in CF-301 specific activity with rHSA, 4% (human serum albumin): 17.8 fold | Specific Activity (Units/mg) of CF-301 in the lytic assay with rHSA, 4% (human serum albumin): 43100 Units/mg | ΣFICavg (checkerboard, S. aureus, heat-inactivated human serum); HSA fraction V (human serum albumin): ≤0.086 | ΣFICavg (checkerboard, S. aureus, heat-inactivated human serum); HSA recombinant (human serum albumin): ≤0.1 | Fold decrease in MIC (50% MHB/50% heat-inactivated human serum supplemented with RabSA, 40 mg/mL) [1]: 4 fold | Fold decrease in MIC (MHB supplemented with RabSA, 40 mg/mL) [1]: 8 fold | ΣFICavg (checkerboard, S. aureus, heat-inactivated human serum); rabbit serum albumin from serum [1]: ≤0.1

Source: patent US20220023399
